{"source": "the DeepSol protein solubility set"}
{"test": "soluble on expression in E. coli; label from the status in PepcDB or PDB records"}
{"sequence": "MGSDKIHHHHHHMMTYRDAWFELALLTNGRSFPRHTHDEFVISANLSGMETVWLDGETFVATNDMVTTYNPNQLQGSDNAFDRWQCASLYVHPQAFEHYFHQTFLFSQGWNPSAQLASELKQLVTSDLDDSARQERIILLLAGLMEGQHRMLPQSQVKEAERITRIKEGLLNDLSEVPTLDQLAQQESLSVAHLVRSFNQAVGLPPLAWLMQRRMCKARELLRQGTAISQVAGDVGFADQAHFTKAFNRYNAMTPGQFRRINF", "soluble on expression in E. coli": "not soluble"}
{"sequence": "MGSDKIHHHHHHMPYAVTLPEFTGPLDLLLRLIERAELDITTIALASVADQYLAHVRTLEEVEPRELAEFVSMAARLILIKSRALLPRSPTTPAEAGDEDAGQLVAQLELYRRFKQAAEVLRRWQDQGRSTFVRLAPPPLLPAPAPISYRITDLLHALERRRQLQLPLAQPEPIVLAPRLTVAEVAERIRARLERTAWFDFTDLLSNDPTTEEVIVSFWAMLELLKRRAIVVEQTMLFGPILIGRGTAPIVTEPADEDEL", "soluble on expression in E. coli": "not soluble"}
{"sequence": "MAHHHHHHMIAATQVPGLNEISRQAASGSPFPQVLPPRYPANKVSTAGLQSSNHGAAQLVHDVNNVAAEIHHPLITAADYSDRRQLLSHITVLSGQLQRAQLLLRNTPSCVVSDADIARFDPLIAQAEVERLDSALAQLSLLHEMERARSGSLEAEQQQLREERNQLVARVDTLESRSVALETENVQLRSALEVAQQELQVLRVGESALGNKLHAIEQLQRDGGRFDGVNVVIAPPRAVCSTAAKELQLQENIQRLSLLLDMMMDPMYIAFDAGVVWITETEHHRAGGQVCGAALSNAPHDSEELTTTVGGNSPLGNASDATLPQDVVANPPHVVASEVDISLLQQQQQELCRQLDAVRESCRVAERNQERLQDLLLEEQRRTEAMAQEHCKQLQCVHDRVVHERRQVVESLVAEVEEKMRNAFRDGRLYQKQLDERLIHRRSSSTFQSRSGHSSARSTPFASRHKAFGGNGTCKGDGDANSSRSARSPILGG", "soluble on expression in E. coli": "not soluble"}
{"sequence": "MTARNPLEAQAWALLEAVYDPELGLDVVNLGLIYDLVVEPPRAYVRMTLTTPGCPLHDSLGEAVRQALSRLPGVEEVEVEVTFEPPWTLARLSEKARRLLGWG", "soluble on expression in E. coli": "soluble"}
{"sequence": "MGHHHHHHSHMPASLALLQPRAMMKTLSSGNCTLSVPAKNSYRMVVLGASRVGKSSIVSRFLNGRFEDQYTPTIEDFHRKVYNIRGDMYQLDILDTSGNHPFPAMRRLSILTGDVFILVFSLDNRESFDEVKRLQKQILEVKSCLKNKTKEAAELPMVICGNKNDHGELCRQVPTTEAELLVSGDENCAYFEVSAKKNTNVDEMFYVLFSMAKLPHEMSPALHRKISVQYGDAFHPRPFCMRRVKEMDAYGMVSPFARRPSVNSDLKYIKAKVLREGQARERDKCTIQ", "soluble on expression in E. coli": "not soluble"}
{"sequence": "MGREMMELNENRALAGGRTGSLRNIKRPLAITEAERQAVRDINLAHLDITSIDFDLFYLRENMELPLDAAAAVAYRLIVGTGLPQKLRCRDDTLLNFILQCRKKYRNVPYHNFYHVVDVCQTIYTFLYKGAVCEKLTELDCFVLLVTALVHDLDHMGLNNSFYLKTDSPLGILSSASGNASVLEVHHCNLAVEILSDPDSDVFEGLDAADRTLAYRSMIDCVLATDMAKHNELLNLFLAAMEKPYQIGDVASRQMMMDVIVKAGDVSNVTKPFDISRLWAMAVTEEFYRQGDMEKEKGVEVLPMFDRSKNTELAKGQIGFIDFVAGPFFKKIVSASLTGMQWTVERVESNRLEWQRTLDVKAAGDGNK", "soluble on expression in E. coli": "soluble"}
{"sequence": "MEELGYVTDAEINAKLAELKGKVPSVVINELREKLMAKKDSLTPRQLDEIVKRVLEAYGSQAAKYEQISKRVDELGKKLSDLSSQLARLVEALEEKKFAVHEKKAEAVAEKAAEVSEKIEKIEEMLEEKPRKSEIEKKLEELHRKIEELSERVAKEKVEETKARIEELEEKIAKGEEIKPEEIKEIEEEVEELGEFEEAPVEEIVVEEEKPPEPVEEVPVVEEKKEEVIEEVPVEEVVEEEKVPSHVVEEEKVEEEGGREMAEKMKIPEDIASLLFEEEPRKARLEEIPDDVVSIMIALKWLGFLIDRVGIQNLEKVLEFYYDIGWISEKVFNQLLRFAKGTRPHHRDPEWKPAEKLTVQDHLISLLFIERLRGLRITRDVLDKLEREIKMLEKTLDEFYGV", "soluble on expression in E. coli": "not soluble"}
{"sequence": "MGSDKIHHHHHHMVWRDAEGQVHALEDRCPHRGARLSLGWNLGDRVACWYHGVEVRADGVVADVPAVHECPMTGTKCLKSYPVIEQHGAIFIWFGIDANEQPAPLEFPEQLASEEWSSFLCQADWKVNHQYAIDNVMDPMHGTYLHCTSHSMAEGERTAEMKHRTTENGFVFEKEGQTGVNFDWVEYGSTGASWLRLSIPYRKQFGPGGEFWIVGYATPIDANNTRVFFWRCRKVSGWQRNVWRFLYRNHLEQLHWDVLEQDRIILENLAPNARAREFLYQHDVGLARLRRLMKKEAEKQLKKIAALNASNRIEMQEEAHG", "soluble on expression in E. coli": "not soluble"}
{"sequence": "MNQKMIIGNAEAICLPELGITHLEARIDTGAQTSSLHVDNIDCFEKDGQSYVAFDLHPDVYHLEQVVRCTAKLKANRKVKSSNGTFEHRCVITTMLRLGDQEWPIDITLTNREKMTYMMLLGRQGMADKVLVDPSQSHLLAS", "soluble on expression in E. coli": "not soluble"}
{"sequence": "MVVEENCSMHHLERELDLELEIDMAMECAPIGRTIKSALLRAQSEARVIVGLSAAINVLSKSPEGSLFCLMAQPKDGDSATHMHEVLLEAFCYENDIYVIKVDDATKLSRILGQDSVESCCLVQKVWADAPEEQLTKAENQLVDYCEAHWDAPQQPIVQLPAV", "soluble on expression in E. coli": "not soluble"}
{"sequence": "MGSDKIHHHHHHMRPVEHAVIPCAGVGSRLNRGVPKSLTEIDGRTLLGRTLLALEHIPHVFLVVGFRKELVISEALRHRRNLIFVPNEYFDQTNTLYSVKLASRLIRDDFLMVDGDVVFDPSSFASLLGQLQTCDGPAIAYSRRTTEDGVKVRLDMSRGETTCTGFFRGEGAHEWTGIGRLNNRVISGNSLFVYESIERHMPAPAYLVDSMDIDTPADLEIARATYGRHDH", "soluble on expression in E. coli": "not soluble"}
{"sequence": "GPGSMSKGFEVYPLTGSHKEVVINEALIRSAISFKPSLTTEDDRVRVVGNQEKALCEEKVQKEAAGIALEDVQTLLLSFRGIKRLENLSCLRSLTKLHLDNNRIRCIEHLESLVHLEWLDLSYNAIEVIDGLQALQHLNCLSLYANKITAVDGLTCLPELNTLSLGRNPLENIDETVHYLHHLPRLQVLTLKECPLAGLPNYRSRVLAFVRGLKFFDGHLVRHDEAAKAREAFRENLLTVDEEDEARAAAAKLQADQEIIASSYQQYNCPNEVMLFDELLHLDPEGRHMEAILRSEAVFSVAKEPLDRYQTEFNEQLRQLTAAMKDIRERRDADDAAYREAVTYTLRHSAAASLASMQRFEALAKGHIVKGVAQPVPGPAKRLPSQATRSLHAALDKLKKDLLEEEAHQYDVLEVLHNNTIAKWKSHSVEVVLQSSFEALLRLETDFQATVRHIFDAVFEERRKGDNAERAFRYVGQDDAMLAFLDNKEEYQRTVNEWYELRRKRVEELEMHHLKAEETLLNARANSILAAEQDRHRRRVHEVCQYVKEMSSRIDGCDH", "soluble on expression in E. coli": "not soluble"}
{"sequence": "MGSDKIHHHHHHMYNNINYKVLWGHSEYDGSFEIMEFRQLSYFISVAKYLSFTKAAEEHHIAQTAISQQISTLEKQLNVKLFVRNNRAVELTDAGRVLLKEADLITSRVVEAERKTKQAALGFEGSLNVGILGSSEKNFLPVILKRFHKLYPKIGINLSRNSYKKLADDMKGGHLDITFIFPYELNDISHVKYRKLFDYEICLVVNKEHRLARYKKIDVKEIKNEKFIVVGKEEAPSTVKQMRKNCMGDGFKLNVVAECKNLDTMLIMVEAGMGVALVPTCVANDSNNNISYIELENSKQIVEIGVAWMEGNMNPTLKLFLGVLSDLYWDN", "soluble on expression in E. coli": "not soluble"}
{"sequence": "PVSAMAKKQKNDVADWLMHKQRVQYGGRVYERSGGIKPFLKSIRDGYIGYYLPDQDHGPEHSVFVDFFATRKATLPGLGKIAKLSRSKVLPLFASMNTEDGTFDIEILPAFDLDKGEEQDARTCNEAIEYFVGDKPEQYMWVLQLLHSQEDGNNYYNLFKPRYNTDWQVEK", "soluble on expression in E. coli": "not soluble"}
